# In FireProtDB (doi:10.1002/prot.340090203):
# Conditions: Escherichia coli (strain K12), reversible: yes, whole UniProt chain shown; for unfolding free energy: pH 7, 25 °C, GdnHCl, CD, Potassium phosphate 10 mM
# [1] = pH 9, Thermal, DSC, Sodium tetraborate 1 mM
protein,measurement,setting,value
"Tryptophan synthase alpha chain wild type, P0A877 (protein) MERYESLFAQLKERKEGAFVPFVTLGDPGIEQSLKIIDTLIEAGADALELGIPFSDPLADGPTIQNATLRAFAAGVTPAQCFEMLALIRQKHPTIPIGLLMYANLVFNKGIDEFYAQCEKVGVDSVLVADVPVEESAPFRQAALRHNVAPIFICPPNADDDLLRQIASYGRGYTYLLSRAGVTGAENRAALPLNHLVAKLKEYNAAPPLQGFGISAPDQVKAAIDAGAAGAISGSAIVKIIEQHINEPEKMLAALKVFVQPMKAATRS",unfolding free energy,,8.8 kcal/mol
same,unfolding free energy,transition: 3,4.6 kcal/mol
same,Tm,[1],54.1 °C
same,heat capacity change of unfolding,[1],4.6 kcal/mol/K
same,unfolding enthalpy (calorimetric),[1],120 kcal/mol
